Data on 2 variants can be found in IntAct's records for PubMed 15601840.

B1: Structural maintenance of chromosomes protein 5 (Schizosaccharomyces pombe (strain ATCC 38366 / 972)), O13710 (parent)
chain: MDGLRPSKRRKSNPLYSDYALGSIVRIKLVNFVTYDYCELFPGPYLNLIIGPNGTGKSTIVSAICIGLGWPPKLLGRAKEAREFIKYGKNTATIEIEMKYRDDETVTITRQISQDKSSSFSINREACATSSITSLMDTFNVQLNNLCHFLPQDRVAEFAQLDPYSRLMETERAIDHEGLLPAHEKLIDLRKREREILQNKNQGQSTLNSLKDRQQALEKEVNIFKEREKIKSYIEMLGLAKMLVIYREKTNVFNQLRADKKKLKKDLKDLVEEFQPILDKGEELRSDLKLKDDTFNDYSSASMELNTSNLRARASFSNFMENEKKLYEKVNTNRTLLRNANLTLNEAQQSVKSLTERQGPRPSDNGVQDLQEKMQEVNAEKLQHENEKLESSHELGSIRTLKAQKLIDLDNIKRELSYYNDATKRKLDFMSSAPGWEDAYQTYQLLKEYESAFEAPAYGPIYMNLKCKEKGFAALIEGFFRTDTFRTFIMSNYNDYLKLMDLITSKTKYTPTIREFSSERKKKIEDFEPPCSREKLQSFGFDGYVIDFLEGPEVVLVALCHMLKIHQIPIAKRELPPASVNALNNFRLANGDPVLKTYLAGSSIHLVFRSAYGDREITRRTDPLPSRSIYFSENVEMDLVKRKEEQLNAQLSQLENLQNEERKLQEKVNEHESLLSRTNDILSTLRKERDEKLIPIHEWQQLQERIEHQTLLLRQREKVPEQFAAEIEKNEDIRKENFEALMNSVLKVKENSIKATNNFEKMLGSRLNVIEAKYKLEKHEMDANQVNARLTEVQDRLKDITDKLASAREDAMSLYGSVVDSLQTQSSDRQTAITELNEEFATSSEVDNKISIEETKLKFMNVNSYVMEQYDARKKEIEELESKMSDFDQSVEELQDEMNSIKEDWVSKLEENVQCISDRFSKGMSGMGYAGEVRLGKSDDYDKWYIDILVQFREEEGLQKLTGQRQSGGERSVSTIMYLLSLQGLAIAPFRIVDEINQGMDPRNERVVHRHIVNSVCDNAVSQYFLVTPKLLPDLTYHRNLKVLCICNGAWLPATFRTSLSTYFEKLKKSALISSS
partner: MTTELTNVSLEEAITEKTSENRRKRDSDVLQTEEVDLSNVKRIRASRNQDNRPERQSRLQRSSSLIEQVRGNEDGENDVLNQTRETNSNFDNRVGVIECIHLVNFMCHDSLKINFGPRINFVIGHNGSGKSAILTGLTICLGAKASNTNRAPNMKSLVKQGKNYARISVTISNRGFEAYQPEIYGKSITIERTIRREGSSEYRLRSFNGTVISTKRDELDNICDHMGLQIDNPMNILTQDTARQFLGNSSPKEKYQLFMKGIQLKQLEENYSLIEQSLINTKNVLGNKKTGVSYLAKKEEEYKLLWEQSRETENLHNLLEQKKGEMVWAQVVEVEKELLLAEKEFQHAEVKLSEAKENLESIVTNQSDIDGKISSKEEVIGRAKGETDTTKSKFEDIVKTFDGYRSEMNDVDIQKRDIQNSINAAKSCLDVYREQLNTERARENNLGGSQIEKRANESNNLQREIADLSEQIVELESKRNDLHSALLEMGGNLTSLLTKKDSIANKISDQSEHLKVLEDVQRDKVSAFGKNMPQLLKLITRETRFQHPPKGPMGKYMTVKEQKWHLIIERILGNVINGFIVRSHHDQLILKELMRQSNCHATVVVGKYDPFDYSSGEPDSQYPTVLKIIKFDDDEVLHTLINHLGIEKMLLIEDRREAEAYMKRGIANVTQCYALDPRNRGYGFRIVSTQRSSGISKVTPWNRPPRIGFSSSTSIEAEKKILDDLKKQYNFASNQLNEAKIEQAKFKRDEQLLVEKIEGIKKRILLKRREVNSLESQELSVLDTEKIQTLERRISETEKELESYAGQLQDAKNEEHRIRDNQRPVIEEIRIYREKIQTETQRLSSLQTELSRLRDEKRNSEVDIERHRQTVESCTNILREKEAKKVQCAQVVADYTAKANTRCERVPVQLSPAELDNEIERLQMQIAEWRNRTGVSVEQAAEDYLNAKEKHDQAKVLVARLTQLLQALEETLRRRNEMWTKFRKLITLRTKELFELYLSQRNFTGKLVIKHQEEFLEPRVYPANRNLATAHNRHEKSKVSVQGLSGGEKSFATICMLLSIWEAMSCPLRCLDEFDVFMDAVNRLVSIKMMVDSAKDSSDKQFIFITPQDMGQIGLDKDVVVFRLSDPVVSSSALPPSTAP
B2: Structural maintenance of chromosomes protein 6 (Homo sapiens), Q96SB8 (parent)
chain: MAKRKEENFSSPKNAKRPRQEELEDFDKDGDEDECKGTTLTAAEVGIIESIHLKNFMCHSMLGPFKFGSNVNFVVGNNGSGKSAVLTALIVGLGGRAVATNRGSSLKGFVKDGQNSADISITLRNRGDDAFKASVYGNSILIQQHISIDGSRSYKLKSATGSVVSTRKEELIAILDHFNIQVDNPVSVLTQEMSKQFLQSKNEGDKYKFFMKATQLEQMKEDYSYIMETKERTKEQIHQGEERLTELKRQCVEKEERFQSIAGLSTMKTNLESLKHEMAWAVVNEIEKQLNAIRDNIKIGEDRAARLDRKMEEQQVRLNEAEQKYKDIQDKLEKISEETNARAPECMALKADVVAKKRAYNEAEVLYNRSLNEYKALKKDDEQLCKRIEELKKSTDQSLEPERLERQKKISWLKERVKAFQNQENSVNQEIEQFQQAIEKDKEEHGKIKREELDVKHALSYNQRQLKELKDSKTDRLKRFGPNVPALLEAIDDAYRQGHFTYKPVGPLGACIHLRDPELALAIESCLKGLLQAYCCHNHADERVLQALMKRFYLPGTSRPPIIVSEFRNEIYDVRHRAAYHPDFPTVLTALEIDNAVVANSLIDMRGIETVLLIKNNSVARAVMQSQKPPKNCREAFTADGDQVFAGRYYSSENTRPKFLSRDVDSEISDLENEVENKTAQILNLQQHLSALEKDIKHNEELLKRCQLHYKELKMKIRKNISEIRELENIEEHQSVDIATLEDEAQENKSKMKMVEEHMEQQKENMEHLKSLKIEAENKYDAIKFKINQLSELADPLKDELNLADSEVDNQKRGKRHYEEKQKEHLDTLNKKKRELDMKEKELEEKMSQARQICPERIEVEKSASILDKEINRLRQKIQAEHASHGDREEIMRQYQEARETYLDLDSKVRTLKKFIKLLGEIMEHRFKTYQQFRRCLTLRCKLYFDNLLSQRAYCGKMNFDHKNETLSISVQPGEGNKAAFNDMRALSGGERSFSTVCFILSLWSIAESPFRCLDEFDVYMDMVNRRIAMDLILKMADSQRFRQFILLTPQSMSSLPSSKLIRILRMSDPERGQTTLPFRPVTQEEDDDQR

One test covers variants of B1. Particulars: with smc6_schpo smc6, P53692.
As for G540R, the “effect of a mutation on the interaction” value is recorded as “decreasing interaction”.

Variants of B2 are the subject of a further test. Particulars: with smc5_human SMC5, Q8IY18.
smc5_human SMC5, Q8IY18, sequence (Q8IY18 whole entry): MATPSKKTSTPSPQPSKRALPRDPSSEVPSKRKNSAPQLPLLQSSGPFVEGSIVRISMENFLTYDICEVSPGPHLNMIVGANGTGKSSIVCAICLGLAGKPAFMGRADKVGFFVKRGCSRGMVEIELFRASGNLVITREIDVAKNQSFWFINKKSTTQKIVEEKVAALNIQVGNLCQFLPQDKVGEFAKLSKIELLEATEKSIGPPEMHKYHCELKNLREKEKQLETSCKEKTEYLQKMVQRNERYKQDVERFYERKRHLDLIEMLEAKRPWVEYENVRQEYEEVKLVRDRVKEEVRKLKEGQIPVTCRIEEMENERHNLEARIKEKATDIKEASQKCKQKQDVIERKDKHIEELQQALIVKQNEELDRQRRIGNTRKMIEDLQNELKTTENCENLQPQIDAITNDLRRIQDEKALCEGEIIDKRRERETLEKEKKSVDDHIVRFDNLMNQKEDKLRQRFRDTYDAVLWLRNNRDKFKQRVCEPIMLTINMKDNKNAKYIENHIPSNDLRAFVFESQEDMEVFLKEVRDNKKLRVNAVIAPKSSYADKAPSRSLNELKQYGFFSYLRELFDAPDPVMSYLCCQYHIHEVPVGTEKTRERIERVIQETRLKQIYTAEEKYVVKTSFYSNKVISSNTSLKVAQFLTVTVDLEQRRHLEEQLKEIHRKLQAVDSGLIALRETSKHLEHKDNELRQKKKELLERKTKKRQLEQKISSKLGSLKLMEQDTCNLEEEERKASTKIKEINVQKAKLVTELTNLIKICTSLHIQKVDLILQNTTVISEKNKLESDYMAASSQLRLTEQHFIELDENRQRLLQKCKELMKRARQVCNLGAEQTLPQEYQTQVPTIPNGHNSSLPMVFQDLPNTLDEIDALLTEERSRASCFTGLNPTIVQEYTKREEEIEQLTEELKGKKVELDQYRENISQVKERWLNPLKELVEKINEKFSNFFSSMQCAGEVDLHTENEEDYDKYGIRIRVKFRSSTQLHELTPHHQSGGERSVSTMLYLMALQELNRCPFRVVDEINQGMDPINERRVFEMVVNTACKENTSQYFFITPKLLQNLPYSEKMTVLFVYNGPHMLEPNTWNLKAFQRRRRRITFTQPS
In the case of G506R, the “effect of a mutation on the interaction” value was “decreasing interaction”.
